Values quoted from earlier work as cited in paper PMC9594322.

Biological target: HIF-1β PAS-B (Homo sapiens) (UniProt P27540)
Sequence (P27540 356-470): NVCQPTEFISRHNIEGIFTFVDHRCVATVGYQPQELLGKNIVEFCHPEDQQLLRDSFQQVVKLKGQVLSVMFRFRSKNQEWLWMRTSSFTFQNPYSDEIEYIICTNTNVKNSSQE

Sequence of HIF-1α PAS-B (Q16665 238-349): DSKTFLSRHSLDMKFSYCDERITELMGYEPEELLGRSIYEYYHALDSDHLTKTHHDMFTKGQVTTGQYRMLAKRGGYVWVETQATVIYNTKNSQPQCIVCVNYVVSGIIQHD

Kd: 378 nM
Substance: HIF-1α PAS-B (from UniProt Q16665)
